The results in this text go back to article PMC4976216.

This test concerns the target microtubules made from mutant yeast tubulin containing no β-CTT (Saccharomyces cerevisiae) (UniProt P09733). Kind of test: co-sedimentation; microtubule binding spin-down assay with yeast tubulin polymerized at 30 °C, experiment carried out at 30 °C; anti-tubulin and anti-CGN western blot. In general terms: Immunoblotting shows a protein as a band on a membrane.

B1: GST-CGN(1-406) (domain or fragment)
chain: MEQAPNMAEPRGPVDHGVQIRFITEPVSGAEMGTLRRGGRRPAKDARASTYGVAVRVQGIAGQPFVVLNSGEKGGDSFGVQIKGANDQGASGALSSDLELPENPYSQVKGFPAPSQSSTSDEEPGAYWNGKLLRSHSQASLAGPGPVDPSNRSNSMLELAPKVASPGSTIDTAPLSSVDSLINKFDSQLGGQARGRTGRRTRMLPPEQRKRSKSLDSRLPRDTFEERERQSTNHWTSSTKYDNHVGTSKQPAQSQNLSPLSGFSRSRQTQDWVLQSFEEPRRSAQDPTMLQFKSTPDLLRDQQEAAPPGSVDHMKATIYGILREGSSESETSVRRKVSLVLEKMQPLVMVSSGSTKAVAGQGELTRKVEELQRKLDEEVKKRQKLEPSQVGLERQLEEKTEECSRL
B1 gave a reduction in binding against wild-type yeast tubulin of 75%.
